Experimental data published in article PMC9250297.

Legend:
[1] = molecular target: HaloTag7 C61S single mutant (UniProt P0A3G2); assay: SDS-PAGE gel shift assay
[2] = molecular target: HaloTag7 C262S single mutant (UniProt P0A3G2); assay: SDS-PAGE gel shift assay

stoichiometry N [1] | stoichiometry N [2] | Substance
2 |  | HaloTag7 C61S single mutant (from UniProt P0A3G2 1-293) (enzyme)
 | 2 | HaloTag7 C262S single mutant (from UniProt P0A3G2 1-293) (enzyme)
